The nanobody polyreactivity screen of Harvey et al. (2022)

Assay: yeast display, Sf9 membrane polyspecificity reagent, FACS + sequencing; frameworks hold sequencing errors
Procedure, shortened: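 Genes from sorted yeast were amplified by colony PCR, read by MiSeq 2 × 250 sequencing and filtered on CDR length. These cells carried a synthetic nanobody library in Saccharomyces cerevisiae BJ5465 and were sorted by FACS into low and high (top ~1%) gates on anti-HA and streptavidin fluorescence. Polyreactivity is labelled according to the gate of origin.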

Sequence	polyreactivity (PSR sort gate)
QVQLVESGGGLVQAGGSLRLSCAASGFIFRAYAMGWYRQEPGKERELVAAISRGGGTYYADSVKGRFTISRDNAKNTVYLQMNSLKPEDTAVYYCAVDLLRRGFPTVVTTYDYWGQGTQVTVSS	high polyreactivity
QVQLVESGGGLVQAGGSLRLSCAASGRTLGSYAMGWYRQAPGKETELVAAIRGSGVSTYYADSVKGRFTISRDNAKNTVYLQMNSLNPEDTAVYYCAARSYIRVWKKGAVQRSVYYWGQGTQVTVSS	high polyreactivity
QVQLVESGGGLVQAGGSLRLSCAASGFSFSRNTMGWYRQAPGKDRELVATIDRGGRTNYADSVKGRFTISRDNAKNTVYLQMNSLKPEDTAVFYCNAYWRRFPQYDYWGLGTQVTVSS	high polyreactivity
QVQLVESGGGLVQAGGSLRLSCAASGITFTYYAMGWYRPAPGKERELVAAITDRGGRTYYADSVKWRFTISRDNAKKTVYLQMNRLNPDDTAVYFCNTVPTSNSRTSVYFPYYYWGQGTQVTVSS	high polyreactivity
QVQLVESGGGLDQAGGSLRLSCAASGSTFRRYAMGWYRQAPGKERELVAAITGSGGRTYYADSVKGRFTISRDNAKNTVYLQMNSLKPEDTAVYYCNAVSYIDYSRARIRYEYWGQGTQVTVSS	high polyreactivity
QVQLVESGGGLVQAVGSLRLSCAASGFILTRYAMGWYRQAPGKERELVAGIRLRGGSTYYADSVKGRFTISRDNAKNTVYLQMNSLKPEDTAVYYCAARYYYQYDYWGQGTQVTVSS	high polyreactivity
QVQLVESGGGLVQAGGSLRLSCAASGRIFRVYAMGWYRQAPGKERELVAAISSGGSTNYADSVKGRFTISRDNAKNTVYLQMNSLKPEDTAVYYCAATVRGVGYRYYYWGQGTQVTVSS	high polyreactivity
QVQLVESGGGLVQAGGSLRLSCAASGSTFLYNAIGWYRQAPGKERELVAAISSGGRTKYADSVKGRFTISRDTAKNTVYLQMNSLKPEDTAVYYCAAESYTGKYCWVWKWYDYWGQGTQVTVSS	low polyreactivity
QVQLVESGGGLVQAGGSVRLSCAASGRIFRYYALGWYRQAPGQEREWVAGITRGGTTNYADSVKGRFTISRDNATNTVSLQMNSLKPEDTAVYYCAADTRRGIIGYDYWGQGTQVTVSS	high polyreactivity
QVQLVESGGGLVQAGGSLRLSCAASGRIFSRYAMGWYRQAPGKERELVAAITSNGGSTYYADSVKGRFTISRDNAKNTVYLQMNSLKPEDTAVYYCAAKSYWLHYDYWGQGTQVTVSS	high polyreactivity
QVQLVESGGVIFQAGGILRLICAASGRIFARNAMGWYRQAPGKERELVAAISRSGGPTYYADSVKGRFTISRDNAKNSVYLQMNSLKTEDTGVYYCAADHYPWWAWEFDYWGQGTQVTVSS	low polyreactivity
QVQLVESGGGLVQAGGSLRLSCAASGSILSGYAMGWYRQAPGKERELVAAITSGGDTNYADSVKGRFTISRDNAKNTVYLQMNSLKPEDTAVYYCNRGGDFRIAYYDPMDYWGQGTQVTVSS	low polyreactivity
QVQLVESGGGLVQAGVSLRLSCASSGSIFPEYVMAWYRQAPGKERELVAAISWSGGSTYYADSVKGRITISRDNAKNTVYFQMNCLKQEATAVYYCNRVPSWRIDYDYWGQGTLVTVSS	low polyreactivity
QVQLVESGGGLVQAGGSLRLSCAASGRIFFFNAMGWYRQAPGKERELVARITRGGSTNYADSVKGRFTISRDNAKNTVYLQMNILKPEDTAVYYCARDGYATTNARYGYDYWGQGTQVTVSS	low polyreactivity
QDHLVESGGGLVPAGGSLRLSCAASGRIVYYVMGRYRQAPGKERELVAAISTRGGSTYYADSVKGRFTISRDNPKNTVYLQMNSLKAEDTAVYYCADSSLLTRYNSWGQGTQVTVSS	high polyreactivity
QLQLVESGGGLVQAGGSLRLSCAASGLTSPGNAMGWYRQAPGKEMELVAAISSGGNTYYADSVKGRFTISRDNAKNTVYLQMNSLKPEDTAVYYCNAGGGTNYGSGYWFGYYYWGQGSQVTVSS	low polyreactivity
QVQLVESAGGLVQAGGSLRLSCAASGSIFPGYAMGWYRQAPVKERELVATITWSGGSTYYADSVKGRFTISRDNAKNSVYLQMNILKPEDTAVYYCNADSNWYYQWNYYGLYDYWGQGTQVTVSS	low polyreactivity
QVQLVESGGGLVQAGGSLRLSCAASGGIFFYNAMGWYRQAPGKERELVAAISTGGGRTYYADSVKGRFTISRDNAKNTVYLQMNSLKPEDTAVYYCAKDKQDYEYWGQGTQVTVSS	low polyreactivity
QVQLVESGGGLLQAGGSLRLSCAASGFILNSYAMGWYRQAPGKERELVAAITRSGGNTFYADSVKGRFKISRDNAKNTVYLQMNSLQPEDTAVYYCYAYFTYWSQLYYWGQGTQVTVSS	high polyreactivity
QVQLVESGGGLVQAGGSLRLSCAASGYIFVKNAMGWYRQAPGKERELVAAISTRGGRTYYADSVKVRFTISRDNAKNTVSLQMNSLKPEDTAVYYCAAVHHTSYYDANSYGYWGQGTQVTVSS	high polyreactivity
QVQLVESGGGLVQAGGSLSLSCAASGSTFGLNASGWYRQAPGKEREFVAAITSGGTYYADSVKGRFTISRDNAKYTVYLHMYSLKPEDTSVYYCAADGTWSIYGGMYYWGQGTQVTVSS	low polyreactivity
QVQLVESGGGLVQAGGSLRLSCAASGSIFQHYAMGWYRQAPGKERELVARINWSGGRTYYADSVKGRFTISRDNAKNTVYLQMNSLKPEDTAVYYCNARYYYWGKAAFNYWGQGTQVTVSS	high polyreactivity

Sequence	polyreactivity (PSR sort gate)
QVQLVESGGGLVQAGGSLRLSCAASGSTFYYNVMGWYRQAPGKERELVAAISNAGTTNYADSVKGRFTISRDNAKNTVYLQMNSLKPEDTAVYYCNAEFIGPEGYWWYIEYYYWGQGTQVTVSS	low polyreactivity
QVQLVESGGGLVQAGGSLRLSCAASGITFQRYALGWYRQAPGKERELVAAITRGGSTNYADSVKGRFTISRDNAKNTVYLQMNSLKPEDTAVYYCAAGARYGYGYWGQGTQVTVSS	high polyreactivity
QVQLVESGGGLVQAGGSLRLSCAASGLTFVWYAMGWYRQAPGKERELVAAIRGGGSTYYADSVKGRFTISRDNAKNTVYLQMNSLKPEDTAVYYCNARYYGAHSPYRFDYWGQGTQVTVSS	high polyreactivity
QVQLVESGGGLVQAGGSLRLSCAASGIIFNDYAMGWYRQAPGNERELVATISWSGGSTYADSVKGLFTISRDNAKNTVYLQMNSLKPEDTAVYYCANQPTVYHHYGLGYWGQGTQVTVSS	low polyreactivity
QVQLVESGGGLVHAGGSLRLSCAASGSTFYYNAMGWNRPAPGKETELVARISRSGGSTYADSVKGRFTISRDNAKNTVYLQMNSLKPEDTAVYYCNADAYGTPEFTSYAVRYDYWGQGTQVTVSS	low polyreactivity
QVQLVESAGGLVQAGGSLRLSCAASGSILYKNAMGWYRQAPGKERELVAAIRSGGSTYYADSVKGRFTISRDNAINTVYLQMNSLKPEDTAVYYCYARTFSHGRYDYWGQGTQVTVSS	low polyreactivity
QVQLVESGGGLVQAGGSLRLSCAASGSIFGENAMGGYRQAPGKERELVAAITSGGSTDYADSVKGRFTISRDNAKNTVYLQMNSLKPEDTAVYYCAASGRVGPGYWYDSWGQGTQVTVSS	low polyreactivity
QVQLVESGGGIVQAGGSLRLSCAASGRILVSNTMGWYRQAPGKERELVAGIRRGGSTDYADSVKGRFTISRDNAKNTVYLQMNSLKPEDTAVYYCNARYSNGYTKLGYWGQGTQVTVSS	low polyreactivity
QVQLVESGGGLVQAGGSLRLSCAASGSTFWPYAMGRYRPAPGKERELGATIRGGGTSTYYADSVKGRVTISRDNAKNTVYLQMNSLKPEDTAGYYCAARGFYTGSYPGYYYWGQGTQVTVSS	high polyreactivity
QVHLVESGGGLVQAGGSLRLSCAATGSTFRYNAMGWYRQAPGKERELVAAISWRGGSTYYADSVKGRFTISRDNAKNTVYLQMNSLKPEDTAVYYCAADRYPSTTYPLSDYNYWGQGTQVTVSS	high polyreactivity
QVQLVESGGGLVQAGGSLRLSCAASGRIFTTYAMGWYRQAPGKERELVAAISQNGGSTYYADSVKGRFTISRDNAKNTVYLQMNSLKPEETAVYYCNAGPAGYYDYDYWGQGTQVTVSS	low polyreactivity
QDQLEESGGGLVQAGGSLRLSCAASGRTFIYYAMGWYRQAPGKERELVAAITRSGGITNYADSVKGRFTISRDNSKNTVYLQMNSLKTEDTEVYYCAARFYGRRCIYGYWGQGTQVTVSS	high polyreactivity
QVQLVESGGGFVQAGVSLRLSCAASGSIFVVYGMGWYRQAPGKERELVAAISGGITNYADSVKGLFTISRDNAKNTVYLLMNSLKPEDTAVYYCATVDGAYQYTYDYWGQGTQVTVSS	low polyreactivity
QVQLVESGGGLVQAGGRLRLSCAASGRTFYYNAMGWYREAPGKERELVATIGGSTYYADSVKGRFTISRDNAKNTVYLQMNSLIPEDTAVYYCAASRYSHYPRYRLTCFYYWGQGTQVTVSS	high polyreactivity
QVQLVESGGGLVQAGGSLRLSCAASGYILRRNAMGWYRKAPGKERELVARINSSGGSTYYADSVKGRFTISRDNAKNTVYLQMNSLKPEDTAVYYCAKSYYRGRDYWGQGTQVTVSS	high polyreactivity
QVQLVESGGGLVQAGGSLRLSCAASGSTFVYNAMGWYRQAPGKERELVAAISSGGSTYYADSVKGRFTISRDNAKNTVYLQMNSLKPEDTAVYYCNARGSWRRDKYGTYYRYDYWGQGTQVTVSS	high polyreactivity
QVQLVESGGGLVQAGGSLRLSCAAWSIFYLNAMGWYRQAHGKERELVAAISSAGSTYYADSVKGRFTISRDNAKKTVYLHMNSLKPEDTAVYYCAAYWYDSPGVTEIWYDYWGQGTQVTVSS	low polyreactivity
QVQLVESGGGLVQAGGSLRLSCAASGRTFDSYAMGWYRQAPGKERELVAAIYADSVKGRFTISRDNAKNTVYLQMNSLKPEDTAVYYCAARDPSRHARRAYDYWGQGTQVTVSS	low polyreactivity
QVQLVESGGGLVQAGGSLRLSCAASGSIFDVNAMGRYRQAPGKERELVAAISQRGTRTYYADSVKGRFTISRDNAKNTVYLQLNSLKPEDTAVYYCNRGGWRQYDSWGQGTQVTVSS	high polyreactivity
QVQLVESGGRLVQAGGSLRLSCPASGIIRGTNAMGGYRQAPGKERELVASITSGAGITYYADSVKGRFTISRDNAKNTVYLQMNSLKPEDTAVYYCNTYPYLWGQGTQVTVSS	low polyreactivity
QVQLVESGGCLVQAGGSLRLSCAASGSTFGGNAMGWYRQAPGKERELVAAISTSGGSTYYADSVKGRFTISRDNAKNTVYLQMNSLKPEDTAVYYCNAVRIGGAPRSRFYDWGQCTQVTVSS	high polyreactivity
